According to the supplement of paper PMC10724198:
± gives the standard deviation of the averaged measurements.

How the values were obtained:
Saccharomyces cerevisiae [1] = assay: protein stability index of tFT-peptide fusion (C-terminal peptide) (PSI (0-1 scale)); higher = more stable (slower turnover)
Procedure: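 MPS profiling in S. cerevisiae of the tFT-X12 degron library: putative degron peptides plus stable controls, 12 aa, fused to the C-terminus of a sfGFP-mCherry timer. Cells are FACS-sorted into 8 mCherry/sfGFP bins and deep-sequenced. PSI runs from 0 (unstable) to 1 (stable). Backgrounds are wild type, das1Δ and doa10Δ at 30 °C, and wild type, das1Δ, cdc34-1 and cdc53-1 at 37 °C; 2-3 technical replicates each.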

Saccharomyces cerevisiae [2] = assay: as above; settings: genetic background: wild type; temperature: 30 C
[3] = genetic background: cdc34-1, temperature: 37 C
[4] = genetic background: cdc53-1, temperature: 37 C
[5] = genetic background: das1 deletion, temperature: 30 C
[6] = genetic background: das1 deletion, temperature: 37 C
[7] = genetic background: doa10 deletion, temperature: 30 C
[8] = genetic background: wild type, temperature: 30 C
[9] = genetic background: wild type, temperature: 37 C
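Further: PSI is a weighted mean of sequencing reads over stability bins, variants kept only with over 10 reads, mCherry proximal and sfGFP distal, peptide attached via GGGS linker.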

| Sequence | protein stability index (Saccharomyces cerevisiae [1]; [3]) | protein stability index (Saccharomyces cerevisiae [1]; [4]) | protein stability index (Saccharomyces cerevisiae [1]; [5]) | protein stability index (Saccharomyces cerevisiae [1]; [6]) | protein stability index (Saccharomyces cerevisiae [1]; [7]) | protein stability index (Saccharomyces cerevisiae [1]; [8]) | protein stability index (Saccharomyces cerevisiae [1]; [9]) | protein stability index (Saccharomyces cerevisiae [2]) |
| --- | --- | --- | --- | --- | --- | --- | --- | --- |
| LLHQSVHSHIPP | 0.637 ± 0.0097 | 0.72 ± 0.013 | 0.638 ± 0.022 | 0.733 ± 0.021 | 0.641 ± 0.018 | 0.641 ± 0.024 | 0.6911 ± 0.0067 | 0.534 ± 0.052 |
| LLILSLLVLSSR | 0.244 ± 0.022 | 0.348 ± 0.024 | 0.241 ± 0.021 | 0.42 ± 0.0046 | 0.2034 ± 0.00063 | 0.229 ± 0.036 | 0.37 ± 0.011 | 0.326 ± 0.0076 |
| LLLCVVLVSVFG | 0.0374 ± 0.0057 | 0.0791 ± 0.044 | 0.122 ± 0.025 | 0.174 ± 0.02 | 0.0854 ± 0.0049 | 0.102 ± 0.023 | 0.134 ± 0.027 | 0.18 ± 0.0041 |
| LLLFSFAALANF | 0.539 ± 0.059 | 0.545 ± 0.017 | 0.398 ± 0.022 | 0.5592 ± 0.0013 | 0.245 ± 0.0066 | 0.283 ± 0.018 | 0.466 ± 0.02 | 0.347 ± 0.0064 |
| LLLFTPFYLLLR | 0.0987 ± 0.033 | 0.0767 ± 0.0017 | 0.218 ± 0.021 | 0.27 ± 0.0065 | 0.525 ± 0.015 | 0.188 ± 0.037 | 0.219 ± 0.016 | 0.305 ± 0.011 |
| LLLPVFRFFFVN | 0.468 ± 0.032 | 0.632 ± 0.065 | 0.554 ± 0.026 | 0.672 ± 0.021 | 0.0849 ± 0.023 | 0.109 ± 0.007 | 0.143 ± 0.0049 | 0.203 ± 0.04 |
| LLRFFPCFLGVN | 0.653 ± 0.018 | 0.6962 ± 0.0039 | 0.657 ± 0.043 | 0.701 ± 0.012 | 0.43 ± 0.023 | 0.425 ± 0.032 | 0.579 ± 0.021 | 0.484 ± 0.022 |
| LLTAARAQLFAV | 0.65 ± 0.0086 | 0.704 ± 0.029 | 0.578 ± 0.016 | 0.7 ± 0.022 | 0.457 ± 0.013 | 0.477 ± 0.019 | 0.6168 ± 0.0014 | 0.503 ± 0.046 |
| LLVSVVFVSRFF | 0.378 ± 0.024 | 0.465 ± 0.075 | 0.272 ± 0.038 | 0.514 ± 0.0092 | 0.213 ± 0.0049 | 0.251 ± 0.035 | 0.444 ± 0.006 | 0.387 ± 0.053 |
| LLWALGLVLVEG | 0.152 ± 0.033 | 0.193 ± 0.026 | 0.217 ± 0.022 | 0.2919 ± 0.0014 | 0.171 ± 0.0078 | 0.204 ± 0.029 | 0.281 ± 0.015 | 0.377 ± 0.029 |
| LNLACCWFVRCR | 0.311 ± 0.035 | 0.339 ± 0.011 | 0.253 ± 0.035 | 0.4215 ± 0.00083 | 0.2269 ± 0.00044 | 0.261 ± 0.021 | 0.399 ± 0.015 | 0.349 ± 0.03 |
| LNSSVLRLRFFV | 0.542 ± 0.027 | 0.739 ± 0.063 | 0.607 ± 0.037 | 0.756 ± 0.04 | 0.0882 ± 0.011 | 0.098 ± 0.024 | 0.152 ± 0.041 | 0.2643 ± 0.0019 |
| LPLCGLLLFLFF | 0.472 ± 0.024 | 0.5394 ± 0.0043 | 0.433 ± 0.024 | 0.5302 ± 0.0025 | 0.42 ± 0.024 | 0.42 ± 0.015 | 0.492 ± 0.022 | 0.435 ± 0.0059 |
| LPLQPPPPVCLP | 0.65583 ± 3.7e-05 | 0.7163 ± 0.0065 | 0.629 ± 0.024 | 0.7199 ± 0.0036 | 0.634 ± 0.031 | 0.644 ± 0.018 | 0.69 ± 0.011 | 0.376 ± 0.022 |
| LPPFGLFLFVFI | 0.437 ± 0.034 | 0.466 ± 0.0094 | 0.31 ± 0.044 | 0.517 ± 0.0074 | 0.274 ± 0.008 | 0.285 ± 0.029 | 0.498 ± 0.01 | 0.366 ± 0.018 |
| LPPSTFLLHFLL | 0.667 ± 0.046 | 0.714 ± 0.011 | 0.656 ± 0.013 | 0.744 ± 0.0099 | 0.218 ± 0.018 | 0.232 ± 0.026 | 0.415 ± 0.0062 | 0.317 ± 0.0077 |
| LPTGLKTFLIAF | 0.481 ± 0.0085 | 0.485 ± 0.031 | 0.414 ± 0.025 | 0.541 ± 0.026 | 0.374 ± 0.0094 | 0.405 ± 0.027 | 0.519 ± 0.0071 | 0.461 ± 0.02 |
| LPVPARPFPPSS | 0.662 ± 0.027 | 0.713 ± 0.0083 | 0.684 ± 0.024 | 0.711 ± 0.014 | 0.705 ± 0.031 | 0.688 ± 0.021 | 0.6907 ± 0.0012 | 0.714 ± 0.0095 |
| LQSYVSRLVRLS | 0.618 ± 0.082 | 0.745 ± 0.027 | 0.653 ± 0.041 | 0.7356 ± 0.00043 | 0.191 ± 0.0033 | 0.186 ± 0.036 | 0.359 ± 0.055 | 0.295 ± 0.015 |
| LRFFLPFLLSLP | 0.519 ± 0.043 | 0.596 ± 0.015 | 0.55 ± 0.036 | 0.6588 ± 0.0031 | 0.158 ± 0.0035 | 0.164 ± 0.022 | 0.292 ± 0.0041 | 0.2418 ± 0.0021 |

| Sequence | protein stability index (Saccharomyces cerevisiae [1]; [3]) | protein stability index (Saccharomyces cerevisiae [1]; [4]) | protein stability index (Saccharomyces cerevisiae [1]; [5]) | protein stability index (Saccharomyces cerevisiae [1]; [6]) | protein stability index (Saccharomyces cerevisiae [1]; [7]) | protein stability index (Saccharomyces cerevisiae [1]; [8]) | protein stability index (Saccharomyces cerevisiae [1]; [9]) | protein stability index (Saccharomyces cerevisiae [2]) |
| --- | --- | --- | --- | --- | --- | --- | --- | --- |
| LRFSLLRVGWLC | 0.652 ± 0.053 | 0.681 ± 0.017 | 0.58 ± 0.0099 | 0.732 ± 0.022 | 0.28 ± 0.0089 | 0.336 ± 0.037 | 0.561 ± 0.011 | 0.434 ± 0.0087 |
| LRGIVSVWILRA | 0.501 ± 0.034 | 0.56 ± 0.0093 | 0.441 ± 0.017 | 0.605 ± 0.0076 | 0.149 ± 0.0028 | 0.148 ± 0.0039 | 0.282 ± 0.0057 | 0.249 ± 0.025 |
| LRLLSLIPPLSC | 0.494 ± 0.022 | 0.535 ± 0.05 | 0.381 ± 0.039 | 0.53 ± 0.016 | 0.34 ± 0.011 | 0.385 ± 0.026 | 0.52 ± 0.011 | 0.467 ± 0.0065 |
| LRSPCALVLLLI | 0.495 ± 0.022 | 0.5317 ± 0.0035 | 0.376 ± 0.029 | 0.556 ± 0.0056 | 0.213 ± 0.0037 | 0.237 ± 0.024 | 0.441 ± 0.0051 | 0.336 ± 0.0096 |
| LSAVISLRIQLS | 0.595 ± 0.093 | 0.603 ± 0.051 | 0.518 ± 0.032 | 0.546 ± 0.0071 | 0.3636 ± 0.0016 | 0.379 ± 0.04 | 0.4919 ± 0.0018 | 0.449 ± 0.021 |
| LSFFICSFFFVL | 0.514 ± 0.045 | 0.556 ± 0.014 | 0.456 ± 0.03 | 0.5798 ± 0.0013 | 0.344 ± 0.006 | 0.361 ± 0.021 | 0.5113 ± 0.0012 | 0.408 ± 0.013 |
| LSFLSLIFSICY | 0.43162 ± 0.0004 | 0.449 ± 0.054 | 0.356 ± 0.021 | 0.526 ± 0.066 | 0.355 ± 0.0012 | 0.333 ± 0.037 | 0.474 ± 0.012 | 0.461 ± 0.022 |
| LSGDIPWSFVPV | 0.743 ± 0.04 | 0.766 ± 0.046 | 0.654 ± 0.011 | 0.787 ± 0.02 | 0.673 ± 0.028 | 0.677 ± 0.031 | 0.75756 ± 0.0002 | 0.738 ± 0.033 |
| LSIGCRCLWGWF | 0.718 ± 0.029 | 0.7548 ± 0.004 | 0.631 ± 0.013 | 0.762 ± 0.022 | 0.577 ± 0.009 | 0.5967 ± 0.0059 | 0.708 ± 0.026 | 0.465 ± 0.051 |
| LSLCPVHRLLVL | 0.558 ± 0.02 | 0.632 ± 0.032 | 0.481 ± 0.025 | 0.624 ± 0.007 | 0.358 ± 0.0063 | 0.379 ± 0.034 | 0.5327 ± 0.0015 | 0.498 ± 0.03 |
| LSLSPRLPRLVA | 0.613 ± 0.015 | 0.659 ± 0.018 | 0.537 ± 0.014 | 0.663 ± 0.0015 | 0.156 ± 0.0087 | 0.197 ± 0.023 | 0.377 ± 0.026 | 0.283 ± 0.038 |
| LSRFGSTCPSGL | 0.72 ± 0.038 | 0.7696 ± 0.0062 | 0.642 ± 0.011 | 0.765 ± 0.032 | 0.6358 ± 0.0032 | 0.638 ± 0.012 | 0.7477 ± 0.0031 | 0.724 ± 0.0079 |
| LSRHLILFIVIR | 0.0962 ± 0.042 | 0.0846 ± 0.02 | 0.172 ± 0.014 | 0.2805 ± 0.0024 | 0.289 ± 0.019 | 0.174 ± 0.019 | 0.2008 ± 0.00073 | 0.272 ± 0.036 |
| LSVYFSLSLCVS | 0.363 ± 0.014 | 0.451 ± 0.0063 | 0.384 ± 0.025 | 0.462 ± 0.011 | 0.392 ± 0.0084 | 0.399 ± 0.017 | 0.429 ± 0.017 | 0.448 ± 0.02 |
| LTCTSTPMACRV | 0.562 ± 0.067 | 0.589 ± 0.021 | 0.443 ± 0.026 | 0.596 ± 0.011 | 0.429 ± 0.015 | 0.475 ± 0.013 | 0.5859 ± 0.0028 | 0.452 ± 0.0075 |
| LVCLPVGFFLMW | 0.565 ± 0.084 | 0.638 ± 0.0074 | 0.47 ± 0.034 | 0.634 ± 0.0072 | 0.388 ± 0.0045 | 0.411 ± 0.013 | 0.576 ± 0.0068 | 0.4899 ± 0.0037 |
| LVCLVFVRSSLV | 0.268 ± 0.0043 | 0.571 ± 0.079 | 0.25 ± 0.024 | 0.529 ± 0.0096 | 0.205 ± 0.0029 | 0.232 ± 0.038 | 0.457 ± 0.017 | 0.339 ± 0.022 |
| LVCSRFLFAFHC | 0.45678 ± 0.00016 | 0.686 ± 0.022 | 0.604 ± 0.037 | 0.699 ± 0.014 | 0.076 ± 0.0097 | 0.0796 ± 0.0047 | 0.104 ± 0.012 | 0.145 ± 0.011 |
| LVFFLFFFRCFS | 0.506 ± 0.059 | 0.514 ± 0.016 | 0.37 ± 0.049 | 0.534 ± 0.014 | 0.3734 ± 0.0018 | 0.36 ± 0.033 | 0.488 ± 0.0042 | 0.449 ± 0.035 |
